# Substitutions are numbered along the chain they refer to.
# T1: recombinant human activated Factor VII (FVIIa) (human, UniProt P08709 61-212; P08709 213-466, Gla domain: ten glutamate residues may be gamma-carboxylated)
# T1 sequence 1: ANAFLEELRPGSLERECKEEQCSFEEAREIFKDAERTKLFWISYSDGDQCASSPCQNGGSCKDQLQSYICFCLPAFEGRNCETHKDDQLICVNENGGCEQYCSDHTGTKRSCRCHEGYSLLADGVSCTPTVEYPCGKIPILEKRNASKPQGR
# T1 sequence 2: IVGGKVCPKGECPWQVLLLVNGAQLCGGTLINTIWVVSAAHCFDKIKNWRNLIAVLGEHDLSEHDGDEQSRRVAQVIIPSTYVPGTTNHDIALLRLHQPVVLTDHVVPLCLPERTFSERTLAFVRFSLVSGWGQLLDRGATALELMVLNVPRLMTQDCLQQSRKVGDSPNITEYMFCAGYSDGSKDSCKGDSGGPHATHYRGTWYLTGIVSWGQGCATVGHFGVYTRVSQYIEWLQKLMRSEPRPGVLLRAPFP
# T2: recombinant human activated FVII (FVIIa) (human, UniProt P08709 61-212; P08709 213-466, ten glutamate residues of the Gla domain may be gamma-carboxylated)
# T2 sequence 1: T1 sequence 1
# T2 sequence 2: T1 sequence 2
# T3: sTLT1 (SEQ ID No: 3 with six histidine residues added at the C-terminus) (human, UniProt Q86YW5 16-162)
# T3 construct: Soluble TLT-1 used in SPR
# T3 sequence: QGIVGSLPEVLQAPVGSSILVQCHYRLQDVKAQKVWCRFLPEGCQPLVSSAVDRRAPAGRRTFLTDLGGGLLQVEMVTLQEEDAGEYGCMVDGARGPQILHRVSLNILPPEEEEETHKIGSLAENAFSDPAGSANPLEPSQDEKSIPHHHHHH
# B1: mAb0001 (antibody, V domains shown)
# VH: EIQLQQTGPELVKPGASVKISCKASGYSFTDYIMVWMKQSQGKTLEWIGKINPYYGDISYNLKFKGKATLTVDKSSSTVYMQLNSLASEDSAVYYCARGFYYDYFDQWGQGTTLTVSS
# VL: DVMVTQTPLSLPVNLGDQASISCRSSQSLVHSNGNTYLHWYLQKPGQSPKLLIYRVSDRFSGVPDRFSGSGSGTDFTLKISRVEAEDLGVYFCSQSTHVPPTFGGGTKLEIK
# notes: fully murine, hybridoma-derived; also called 11F26
# B2: mAb0578 (antibody, V domains shown)
# VH: QVQLQQSGAELMKPGASVKISCKATGYTFNTYWIEWVKQRPGHGLEWIGEILPGRGTTNYNENFKGKATITADISSNTAYLQLSSLTGEDSAVYYCARLTPLSLRTGYWGQGTTLTVSS
# VL: DILLTQSPAILSVSPGERVSFSCRASQSIGTSIHWYQQRTNGSPRLLIKYASESISGIPSRFSGSGSGTDFTLSINSVESEDIADYYCQQSNSWPFTFGSGTKLEIK
# notes: fully murine, hybridoma-derived; also called 12F19
# B3: mAb0018 (antibody, V domains shown)
# VH: QITLKESGPGILKPSQTLSLTCSFSGFSLSTSGLGVGWIRQTSGKGLEWLAHIWWDDDKYYYPPLKSQLTISKDTSRNQVFLKITSVDTADTATYYCARRAFYDGYYGPMEYWGQGTSVTVSS
# VL: DIVLSQSPSSLAVSVGEKVTMSCKSSQSLLYSSNQKNSLAWYQHKPGQSPKLLIYWASTRESGVPDRFTGSGSGTDFTLTISNVKAEDLAVYYCHQYYNYLLTFGPGTKLELK
# notes: fully murine, hybridoma-derived; also called 8F19
# B4: mAb0587 (antibody, V domains shown)
# VH: QVQLQQSGAELLKPGASVKISCKATDYTFSRYWIEWVKQRPGHGLEWIGEILPGSVNIKYNEIFKGKATFTAETSSNTAYMQLSSLTSEDSAVYYCTRTPYLQRGAYWGQGTLVTVSA
# VL: QIVLTQSPAIMSASPGEKVTITCSASSSVSYMFWFQQKPGTSPKLWIYSTSNLASGVPARFSGSGSGTSYSLTISRMEAEDAATYYCQQRSSYPLTFGAGTKLELK
# notes: fully murine, hybridoma-derived; also called 12F39
# B5: mAb0007 (antibody, V domains shown)
# VH: DVQLQESGPGLVEPSQSLSLTCTVTGYSITSDCAWSWIRQFPGNKLEWMGYINYSGSTNYNPSLKSRISITRDTSKNQFFLRLNSVTGEDTATYYCARSVNYYGNSFAVGYWGQGTSVTVSS
# VL: DIVMTQSPATLSVTPGDRVSLSCRASQSISDYLHWYQHKSHESPRLLIKYVSQPISGIPSRFSGSGSGSEFTLSINSVEPEDVGVYYCQNGHSFPLTFGAGTKLELK
# notes: fully murine, hybridoma-derived; also called 11F34
# B6: mAb0004 (antibody, V domains shown)
# VH: QVQLKESGPGLVAPSQSLSITCTVSGFSLTDYGVSWIRQPPGKGLEWLGVIWGGGNTYNNSALKSRLSISKDNSKSQVFLKMNSLQADDTAMYFCAKHGYYGYVMDYWGQGTSVTVSS
# VL: DIVMTQSHKIMSTLVGDRVSITCKASQDVDPAVAWYQQKPGQYPKLLIYWASTRHTGVPDRFTGSGSGTDFTLTISNVQSEDLADYFCQQYSKYPYTFGGGTKLEIK
# notes: fully murine, hybridoma-derived; also called 11F19
# B7: biAb0097 (bispecific antibody, human IgG4 S228P, kappa)
# heavy 1: DVQLQESGPGLVEPSQSLSLTCTVTGYSITSDSAWSWIRQFPGNKLEWMGYIQYSGSTNYNPSLKSRISVTRDTSKNQFFLRLSSVTAEDTATYYCTRSVNYYGNSFAVGYWGQGTSVTVSSASTKGPSVFPLAPCSRSTSESTAALGCLVKDYFPEPVTVSWNSGALTSGVHTFPAVLQSSGLYSLSSVVTVPSSSLGTKTYTCNVDHKPSNTKVDKRVESKYGPPCPPCPAPEFLGGPSVFLFPPKPKDTLMISRTPEVTCVVVDVSQEDPEVQFNWYVDGVEVHNAKTKPREEQFNSTYRVVSVLTVLHQDWLNGKEYKCKVSNKGLPSSIEKTISKAKGQPREPQVYTLPPSQEEMTKNQVSLTCLVKGFYPSDIAVEWESNGQPENNYKTTPPVLDSDGSFLLYSKLTVDKSRWQEGNVFSCSVMHEALHNHYTQKSLSLSLGK
# light 1: EIVLTQSPATLSLSPGERATLSCRASQGISDYLHWYQQKPGEAPRLLIKYTSQPATGIPARFSGSGSGTDFTLTISSLEPEDVGVYYCQSGHSFPLTFGAGTKLELKRTVAAPSVFIFPPSDEQLKSGTASVVCLLNNFYPREAKVQWKVDNALQSGNSQESVTEQDSKDSTYSLSSTLTLSKADYEKHKVYACEVTHQGLSSPVTKSFNRGEC
# heavy 2: not shown
# light 2: DIVMTQTPLSSPVTLGQPASISCRSSQSLVHRNGNTYFHWLQQRPGQPPRLLIYKVSNRFSGVPDRFSGSGAGTDFTLKISRVEAEDVGVYYCSQSTHVPYTFGQGTKLEIKRTVAAPSVFIFPPSDEQLKSGTASVVCLLNNFYPREAKVQWKVDNALQSGNSQESVTEQDSKDSTYSLSSTLTLSKADYEKHKVYACEVTHQGLSSPVTKSFNRGEC
# notes: Duobody, constant domain type H (IgG4): anti-FVII(a) arm mAb0872, anti-TLT-1 arm mAb1047; also called mAb0872 x mAb1047
# B8: biAb0098 (bispecific antibody, human IgG4 S228P, kappa)
# heavy 1: DVQLQESGPGLVEPSQTLSLTCTVSGYSITSDSAWSWIRQFPGKKLEWMGYIQYSGSTNYNPSLKSRVTISRDTSKNQFSLKLSSVTAEDTAVYYCARSVNYYGNSFAVDYWGQGTSVTVSSASTKGPSVFPLAPCSRSTSESTAALGCLVKDYFPEPVTVSWNSGALTSGVHTFPAVLQSSGLYSLSSVVTVPSSSLGTKTYTCNVDHKPSNTKVDKRVESKYGPPCPPCPAPEFLGGPSVFLFPPKPKDTLMISRTPEVTCVVVDVSQEDPEVQFNWYVDGVEVHNAKTKPREEQFNSTYRVVSVLTVLHQDWLNGKEYKCKVSNKGLPSSIEKTISKAKGQPREPQVYTLPPSQEEMTKNQVSLTCLVKGFYPSDIAVEWESNGQPENNYKTTPPVLDSDGSFLLYSKLTVDKSRWQEGNVFSCSVMHEALHNHYTQKSLSLSLGK
# light 1: B7 light 1 with S90N
# heavy 2: not shown
# light 2: B7 light 2
# notes: Duobody, constant domain type H (IgG4): anti-FVII(a) arm mAb0874, anti-TLT-1 arm mAb1047; also called mAb0874 x mAb1047
# B9: biAb0093 (bispecific antibody, human IgG4 S228P, kappa)
# heavy 1: B8 heavy 1
# light 1: B7 light 1 with S90N
# heavy 2: not shown
# light 2: B7 light 2
# notes: Duobody, constant domain type H (IgG4): anti-FVII(a) arm mAb0874, anti-TLT-1 arm mAb1049; also called mAb0874 x mAb1049
# B10: biAb0092 (bispecific antibody, human IgG4 S228P, kappa)
# heavy 1: B7 heavy 1
# light 1: B7 light 1
# heavy 2: not shown
# light 2: B7 light 2
# notes: Duobody, constant domain type H (IgG4): anti-FVII(a) arm mAb0872, anti-TLT-1 arm mAb1049; also called mAb0872 x mAb1049
# B11: biAb0018 (bispecific antibody, human IgG4 S228P, kappa)
# heavy 1: B8 heavy 1
# light 1: B7 light 1 with S90N
# heavy 2: not shown
# light 2: B7 light 2 with N33P
# notes: Duobody, constant domain type H (IgG4): anti-FVII(a) arm mAb0874, anti-TLT-1 arm mAb1038; also called mAb0874 x mAb1038
# B12: biAb0017 (bispecific antibody, human IgG4 S228P, kappa)
# heavy 1: B7 heavy 1
# light 1: B7 light 1
# heavy 2: not shown
# light 2: B7 light 2 with N33P
# notes: Duobody, constant domain type H (IgG4): anti-FVII(a) arm mAb0872, anti-TLT-1 arm mAb1038; also called mAb0872 x mAb1038
# B13: biAb0012 (bispecific antibody, human IgG4 S228P, kappa)
# heavy 1: B7 heavy 1
# light 1: B7 light 1
# heavy 2: not shown
# light 2: B7 light 2 with N33Q
# notes: Duobody, constant domain type H (IgG4): anti-FVII(a) arm mAb0872, anti-TLT-1 arm mAb1076; also called mAb0872 x mAb1076
# B14: biAb0013 (bispecific antibody, human IgG4 S228P, kappa)
# heavy 1: B8 heavy 1
# light 1: B7 light 1 with S90N
# heavy 2: not shown
# light 2: B7 light 2 with N33Q
# notes: Duobody, constant domain type H (IgG4): anti-FVII(a) arm mAb0874, anti-TLT-1 arm mAb1076; also called mAb0874 x mAb1076
# Biological target: T1, recombinant human activated Factor VII …
# Assay: cell-based or functional assay
AT inhibition (kinh %) [%],TGT activity (% FVIIa),Binder
82,109,B1
77,91,B2
525,141,B3
103,93,B4
121,113,B5
24,75,B6

# Biological target: T2, recombinant human activated FVII (FVIIa)
# Assay: cell-based or functional assay
row,"Stimulation (fold): FXa generated by FVIIa with lipidated TLT-1 and 100 nM biAb, relative to free FVIIa [fold]",Binder
1,17.4,B7
2,15.3,B8
3,9.6,B9
4,11.2,B10
5,12.8,B11
6,13.6,B12
7,22.1,B13
8,16,B14

# Biological target: T3, sTLT1 (SEQ ID No: 3 with six histidine …)
# Assay: dissociation constant listed with the stimulatory activities; value of the anti-TLT-1 arm
row,Kd [nM],Binder
1,75,B7
2,75,B8
3,320,B9
4,320,B10
5,19,B11
6,19,B12
7,2.9,B13
8,2.9,B14

# Biological target: T2, recombinant human activated FVII (FVIIa)
# Assay: dissociation constant listed with the stimulatory activities; method not given
row,Kd [nM],Binder
1,2.2,B7
2,16.2,B8
3,16.2,B9
4,2.2,B10
5,16.2,B11
6,2.2,B12
7,2.2,B13
8,16.2,B14

# Biological target: T1, recombinant human activated Factor VII …
# Assay: SPR (Biacore T200), antibody captured on anti-murine IgG, FVIIa injected at 5-135 nM, 1:1 model
# Protocol: Anti-murine IgG (by GE Healthcare) was immobilised on a CM4 sensor chip using standard amine coupling chemistry kit (both supplied by GE Healthcare). […] The running buffer was prepared by diluting 10-fold the 10×HBS-P buffer (supplied by GE Healthcare) and supplemented with 1 mg/ml BSA and 5 mM CaCl₂) to give 10 mM HEPES, 150 mM NaCl, 0.05% v/v Polysorbate 20(P20), pH 7.4, 5 mM CaCl₂), 1 mg/ml bovine serum albumin (BSA). […] Regeneration of the chip was achieved using regeneration buffer consisting of 10 mM Gly-HCl pH 1.7 (supplied by GE Healthcare). Binding data were analysed according to a 1:1 model using BiaEvaluation 4.1 supplied by the manufacturer (Biacore AB, Uppsala, Sweden).
row,Kd [nM],Binder
1,0.17,B1
2,0.58,B2
3,9.3,B3
4,0.49,B4
5,0.25,B5
6,0.16,B6

# — patent US20220064329A1 (Novo Nordisk, published 2022)
